Measured values: article PMC3042951 (The journal of physical chemistry. B, 2010)

Biological target: the molecule itself
Assay: cross-linking

B1: native human LysRS (70–584) T285C (enzyme)
chain: not shown
B1 was tested, and the “stoichiometry N” value was 2.
